Experimental data taken from US20200231673A1 (Hoffmann-La Roche, published 2020).
One block for each binder: values may come before it.

Key:
[1] = biological target: human CD3 (particularly the epsilon subunit of CD3) (human, UniProt P07766 23-207); experiment: cell-based or functional assay
[2] = biological target: human Her3 (human, UniProt P21860 20-1342); experiment: cell-based or functional assay

- EC50 of activation of Jurkat-NFAT reporter cells via CD3 after 5 h (luminescence, KPL4 tumor cells) [1]: 34.4 pM
B1: Her2 TCB: anti-Her2/anti-CD3 '2+1 IgG CrossFab, inverted' molecule with charge modifications (bispecific antibody)
light: EVQLLESGGGLVQPGGSLRLSCAASGFTFSTYAMNWVRQAPGKGLEWVSRIRSKYNNYATYYADSVKGRFTISRDDSKNTLYLQMNSLRAEDTAVYYCVRHGNFGNSYVSWFAYWGQGTLVTVSSASVAAPSVFIFPPSDEQLKSGTASVVCLLNNFYPREAKVQWKVDNALQSGNSQESVTEQDSKDSTYSLSSTLTLSKADYEKHKVYACEVTHQGLSSPVTKSFNRGEC
chain 1: not shown
chain 2: not shown
chain 3: not shown

- EC50 of tumor cell lysis (LDH release), KPL4 cells, 24 h [2]: 2.54 pM
- EC50 of tumor cell lysis (LDH release), KPL4 cells, 48 h [2]: 0.53 pM
- EC50 of tumor cell lysis determined by Caspase 3/7 activity (luminescence), KPL-4-Caspase-3/7 GloSensor cells, 6.5 h [2]: 0.7 pM
- EC50 of activation of Jurkat-NFAT reporter cells via CD3 after 5 h (luminescence, KPL4 tumor cells) [1]: 22 pM
B2: Her3 TCB: anti-Her3/anti-CD3 '2+1 IgG CrossFab' molecule with charge modifications (bispecific antibody)
light: B1 light
chain 1: not shown
chain 2: QVQLVQSGAEVKKPGASVKVSCKASGYTFRSSYISWVRQAPGQGLEWMGWIYAGTGSPSYNQKLQGRVTMTTDTSTSTAYMELRSLRSDDTAVYYCARHRDYYSNSLTYWGQGTLVTVSSASTKGPSVFPLAPSSKSTSGGTAALGCLVEDYFPEPVTVSWNSGALTSGVHTFPAVLQSSGLYSLSSVVTVPSSSLGTQTYICNVNHKPSNTKVDEKVEPKSCDKTHTCPPCPAPEAAGGPSVFLFPPKPKDTLMISRTPEVTCVVVDVSHEDPEVKFNWYVDGVEVHNAKTKPREEQYNSTYRVVSVLTVLHQDWLNGKEYKCKVSNKALGAPIEKTISKAKGQPREPQVCTLPPSRDELTKNQVSLSCAVKGFYPSDIAVEWESNGQPENNYKTTPPVLDSDGSFFLVSKLTVDKSRWQQGNVFSCSVMHEALHNHYTQKSLSLSP
chain 3: not shown
